Experimental data taken from publication PMC10681739, “High-throughput data and modeling reveal insights into the mechanisms of cooperative DNA-binding by transcription factor proteins”.

B1: Table S2 A row 271 (dsDNA)
DNA 1: CACCCCCCCAGTGCAGGAAGTGGTTTTCGAGGGCAG
DNA 2: CTGCCCTCGAAAACCACTTCCTGCACTGGGGGGGTG
B2: Table S2 A row 489 (dsDNA)
DNA 1: TCTAAATCACTTCCTGTTACAGAAACCACAGGCCTG
DNA 2: CAGGCCTGTGGTTTCTGTAACAGGAAGTGATTTAGA
B3: Table S2 A row 327 (dsDNA)
DNA 1: AATTGAGACAGGAAATGTTGGTTTGTGGTCAGGCAC
DNA 2: GTGCCTGACCACAAACCAACATTTCCTGTCTCAATT
B4: Table S2 A row 964 (dsDNA)
DNA 1: AATCTGAAACAGGAAATAAGTCTGTGGTTGTGTGTT
DNA 2: AACACACAACCACAGACTTATTTCCTGTTTCAGATT
B5: Table S2 A row 524 (dsDNA)
DNA 1: TATCTCCTATCTCCAGGAAGTGGTTAGCCCTAGGAG
DNA 2: CTCCTAGGGCTAACCACTTCCTGGAGATAGGAGATA
B6: Table S2 A row 1263 (dsDNA)
DNA 1: TCACATTTTGCCGGATGTGGGTTGAGGGCATGCTGC
DNA 2: GCAGCATGCCCTCAACCCACATCCGGCAAAATGTGA
B7: Table S2 A row 99 (dsDNA)
DNA 1: CTTAGCACTTCAGCCGGAAACCACAGCATACATTTC
DNA 2: GAAATGTATGCTGTGGTTTCCGGCTGAAGTGCTAAG
B8: Table S2 A row 456 (dsDNA)
DNA 1: AACAGGCAAAGGACAGGATGTGGTGAGCGTCGGCCC
DNA 2: GGGCCGACGCTCACCACATCCTGTCCTTTGCCTGTT
B9: Table S2 A row 1146 (dsDNA)
DNA 1: GACACAAGCCTCACAGGATGTGGTCAAAGAAGGTTG
DNA 2: CAACCTTCTTTGACCACATCCTGTGAGGCTTGTGTC
B10: Table S2 A row 1302 (dsDNA)
DNA 1: AACAGACAGGATGTGGCCTCTGCCAAAACCACCATC
DNA 2: GATGGTGGTTTTGGCAGAGGCCACATCCTGTCTGTT
B11: Table S2 A row 513 (dsDNA)
DNA 1: AGGACGGGCGGAAGTGGCTGCGGTGGATGGTGGGAG
DNA 2: CTCCCACCATCCACCGCAGCCACTTCCGCCCGTCCT
B12: Table S2 A row 397 (dsDNA)
DNA 1: AGGGGAGGAACCAGGAAGTTGTGGTAAACTGTAGCA
DNA 2: TGCTACAGTTTACCACAACTTCCTGGTTCCTCCCCT
B13: Table S2 A row 288 (dsDNA)
DNA 1: CATAGACCGGATGCCTCGTCAACCACAGAAACCAAT
DNA 2: ATTGGTTTCTGTGGTTGACGAGGCATCCGGTCTATG
B14: Table S2 A row 1206 (dsDNA)
DNA 1: TTGATTGGAGCAGGATGTGGTCAGAACAGTATGCAG
DNA 2: CTGCATACTGTTCTGACCACATCCTGCTCCAATCAA
B15: Table S2 A row 1449 (dsDNA)
DNA 1: GGGTTGGGTGCCGGATGCGGTGAGTGAGGTTCTCAT
DNA 2: ATGAGAACCTCACTCACCGCATCCGGCACCCAACCC
B16: Table S2 A row 568 (dsDNA)
DNA 1: GTGGGGCAGGATGTGCTTGCCTGGCTGCGGTTGGAC
DNA 2: GTCCAACCGCAGCCAGGCAAGCACATCCTGCCCCAC
B17: Table S2 A row 1142 (dsDNA)
DNA 1: ACAATAACAGGAAGTGGTGGGGACTGCGGTGACCTG
DNA 2: CAGGTCACCGCAGTCCCCACCACTTCCTGTTATTGT
B18: Table S2 A row 223 (dsDNA)
DNA 1: AGGGAACAGGAAATGCAAAAAACCACAAGGGACAAG
DNA 2: CTTGTCCCTTGTGGTTTTTTGCATTTCCTGTTCCCT
B19: Table S2 A row 1496 (dsDNA)
DNA 1: GCACTGTAGGCAGGATGTGGGCAGGGGAAACTCAGG
DNA 2: CCTGAGTTTCCCCTGCCCACATCCTGCCTACAGTGC
B20: Table S2 A row 644 (dsDNA)
DNA 1: GCCGGCGGCCGGAAGTCTATCCCGCAGAAGCGCAGC
DNA 2: GCTGCGCTTCTGCGGGATAGACTTCCGGCCGCCGGC
B21: Table S2 A row 435 (dsDNA)
DNA 1: GACACAAGAACAGCAGGATGTGGTCAGAGGCGTCGT
DNA 2: ACGACGCCTCTGACCACATCCTGCTGTTCTTGTGTC
B22: Table S2 A row 517 (dsDNA)
DNA 1: GTTAGCGTGATCGGAGGATGTGGTTTTCCTCCCTCT
DNA 2: AGAGGGAGGAAAACCACATCCTCCGATCACGCTAAC
B23: Table S2 A row 649 (dsDNA)
DNA 1: TCTGTCGTCCCACTTCCTGCTGCGGTTTCCACCTCG
DNA 2: CGAGGTGGAAACCGCAGCAGGAAGTGGGACGACAGA
B24: Table S2 A row 647 (dsDNA)
DNA 1: CCCAGCCCTGCTGCCGGATGTGGTGAGGCCCAGGTG
DNA 2: CACCTGGGCCTCACCACATCCGGCAGCAGGGCTGGG
B25: Table S2 A row 1548 (dsDNA)
DNA 1: TGCAGTCGTGAAAAAGGAAGTGGTTAAAGTGGCTAC
DNA 2: GTAGCCACTTTAACCACTTCCTTTTTCACGACTGCA
B26: Table S2 A row 987 (dsDNA)
DNA 1: TGGGCAGGAAGTGGTATCTGATTGTGGTTTTGATTT
DNA 2: AAATCAAAACCACAATCAGATACCACTTCCTGCCCA
B27: Table S2 A row 895 (dsDNA)
DNA 1: TCAAGTTTGGTAACAGGATGTGGTAGGAGGAACACA
DNA 2: TGTGTTCCTCCTACCACATCCTGTTACCAAACTTGA
B28: Table S2 A row 966 (dsDNA)
DNA 1: GGCCTTCATTACACAGGATGCGGTTGAAATGCATCA
DNA 2: TGATGCATTTCAACCGCATCCTGTGTAATGAAGGCC
B29: Table S2 A row 332 (dsDNA)
DNA 1: AACAGGAAGTGGTCTTAGAGATCATGCGGTTCAGAG
DNA 2: CTCTGAACCGCATGATCTCTAAGACCACTTCCTGTT
B30: Table S2 A row 1753 (dsDNA)
DNA 1: TGAAGCAGGCGGAAGTGCTGTGGTTTCTGGCGACTG
DNA 2: CAGTCGCCAGAAACCACAGCACTTCCGCCTGCTTCA
B31: Table S2 A row 338 (dsDNA)
DNA 1: GCCCAGGGCGGCCGGAAGTTTGCGGGGCGGGGCGGA
DNA 2: TCCGCCCCGCCCCGCAAACTTCCGGCCGCCCTGGGC
B32: Table S2 A row 702 (dsDNA)
DNA 1: CACCTCCTCTCCGGATGCGGTTTGTTCTGCTTGTAG
DNA 2: CTACAAGCAGAACAAACCGCATCCGGAGAGGAGGTG
B33: Table S2 A row 930 (dsDNA)
DNA 1: AGCTCCACCGGAAACGGCCTGGCCGCAGCCAATCAG
DNA 2: CTGATTGGCTGCGGCCAGGCCGTTTCCGGTGGAGCT
B34: Table S2 A row 1136 (dsDNA)
DNA 1: CCCGCTCACGCCGGAAGTGGTTTGCGTTTTCAAGAT
DNA 2: ATCTTGAAAACGCAAACCACTTCCGGCGTGAGCGGG
B35: Table S2 A row 553 (dsDNA)
DNA 1: CCTTGCAGCAACGGATGTGGGTTTTTTTTTTTCTTT
DNA 2: AAAGAAAAAAAAAAACCCACATCCGTTGCTGCAAGG
B36: Table S2 A row 466 (dsDNA)
DNA 1: GTGCTAGGACACAGGAAGCGATACCACAAAGAACAT
DNA 2: ATGTTCTTTGTGGTATCGCTTCCTGTGTCCTAGCAC
B37: Table S2 A row 1210 (dsDNA)
DNA 1: CGGGAGGGGCAGGAAGCGGACTGCGGTGGGGAAGGG
DNA 2: CCCTTCCCCACCGCAGTCCGCTTCCTGCCCCTCCCG
B38: Table S2 A row 483 (dsDNA)
DNA 1: AACCAAACAGCCACAGGAAGTGGTTTCTGTGATTCA
DNA 2: TGAATCACAGAAACCACTTCCTGTGGCTGTTTGGTT
B39: Table S2 A row 166 (dsDNA)
DNA 1: GATATGGCAGGAAGTAGGGCCTGGAAACCGCACGGC
DNA 2: GCCGTGCGGTTTCCAGGCCCTACTTCCTGCCATATC
B40: Table S2 A row 658 (dsDNA)
DNA 1: AGCTAGGACAGGATGTGAAAACCACACTGACAAAGT
DNA 2: ACTTTGTCAGTGTGGTTTTCACATCCTGTCCTAGCT
B41: Table S2 A row 462 (dsDNA)
DNA 1: TTCAACAGGATGTGGGAACTTGACTCTCGCCGCAAA
DNA 2: TTTGCGGCGAGAGTCAAGTTCCCACATCCTGTTGAA
B42: Table S2 A row 1758 (dsDNA)
DNA 1: GCTGATAGAACAGGATGTGGTAAAGAAGCAGGCCAA
DNA 2: TTGGCCTGCTTCTTTACCACATCCTGTTCTATCAGC
B43: Table S2 A row 1174 (dsDNA)
DNA 1: CCTGCGGATCACGGAAGTGGCTGCGGTCGGCGCCAT
DNA 2: ATGGCGCCGACCGCAGCCACTTCCGTGATCCGCAGG
B44: Table S2 A row 92 (dsDNA)
DNA 1: GTCCCCGTAACAGGATGTGGTGAGCTGTTATACCAC
DNA 2: GTGGTATAACAGCTCACCACATCCTGTTACGGGGAC

target: ETS1:RUNX1 (Homo sapiens, UniProt P14921;Q01196 full;full); assay: gcPBM; 1 nM ETS1 + 25 nM RUNX1, anti-ETS1 signal, normalised; conditions: tags: N-terminal GST (pDEST15), kept (PMC6008103); copies: 1;1; label: surface-attached array probe
Sequence (P14921 whole entry, chain 1 of 2): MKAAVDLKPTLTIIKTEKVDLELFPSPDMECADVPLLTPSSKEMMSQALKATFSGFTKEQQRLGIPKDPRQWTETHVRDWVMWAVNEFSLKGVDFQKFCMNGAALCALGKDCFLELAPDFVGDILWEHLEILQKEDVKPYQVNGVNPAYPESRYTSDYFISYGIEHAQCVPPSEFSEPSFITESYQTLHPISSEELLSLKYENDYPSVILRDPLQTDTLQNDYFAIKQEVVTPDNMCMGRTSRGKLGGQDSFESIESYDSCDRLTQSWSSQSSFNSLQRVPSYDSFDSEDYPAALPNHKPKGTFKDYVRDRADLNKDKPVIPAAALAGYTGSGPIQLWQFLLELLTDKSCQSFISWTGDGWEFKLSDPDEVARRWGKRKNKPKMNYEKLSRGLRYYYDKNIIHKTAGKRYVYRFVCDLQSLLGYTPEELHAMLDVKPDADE
Sequence (Q01196 whole entry, chain 2 of 2): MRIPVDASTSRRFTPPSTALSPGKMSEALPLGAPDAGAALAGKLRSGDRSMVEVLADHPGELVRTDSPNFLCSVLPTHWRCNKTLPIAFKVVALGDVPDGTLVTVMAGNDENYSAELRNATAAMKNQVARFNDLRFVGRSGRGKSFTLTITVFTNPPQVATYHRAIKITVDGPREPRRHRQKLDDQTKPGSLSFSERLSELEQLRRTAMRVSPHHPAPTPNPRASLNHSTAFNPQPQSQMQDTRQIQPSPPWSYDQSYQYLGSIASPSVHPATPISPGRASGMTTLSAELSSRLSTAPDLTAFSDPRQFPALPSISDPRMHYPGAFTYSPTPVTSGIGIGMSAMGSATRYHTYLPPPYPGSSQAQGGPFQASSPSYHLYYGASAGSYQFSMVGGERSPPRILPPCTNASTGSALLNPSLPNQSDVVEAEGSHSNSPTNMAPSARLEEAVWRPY

In order of rising binding signal:
1. B19  9520 PBM fluorescence, median of replicate spots
2. B5  9680 PBM fluorescence, median of replicate spots
3. B7  10100 PBM fluorescence, median of replicate spots
4. B29  10100 PBM fluorescence, median of replicate spots
5. B15  10600 PBM fluorescence, median of replicate spots
6. B8  10800 PBM fluorescence, median of replicate spots
7. B13  11200 PBM fluorescence, median of replicate spots
8. B16  11400 PBM fluorescence, median of replicate spots
9. B43  11700 PBM fluorescence, median of replicate spots
10. B40  11800 PBM fluorescence, median of replicate spots
11. B25  12100 PBM fluorescence, median of replicate spots
12. B22  12400 PBM fluorescence, median of replicate spots
13. B32  12500 PBM fluorescence, median of replicate spots
14. B10  12700 PBM fluorescence, median of replicate spots
15. B2  13000 PBM fluorescence, median of replicate spots
16. B24  13200 PBM fluorescence, median of replicate spots
17. B27  13400 PBM fluorescence, median of replicate spots
18. B41  13800 PBM fluorescence, median of replicate spots
19. B11  14100 PBM fluorescence, median of replicate spots
20. B1  14300 PBM fluorescence, median of replicate spots
21. B6  14600 PBM fluorescence, median of replicate spots
22. B23  14900 PBM fluorescence, median of replicate spots
23. B30  15300 PBM fluorescence, median of replicate spots
24. B12  15800 PBM fluorescence, median of replicate spots
25. B31  16100 PBM fluorescence, median of replicate spots
26. B37  16400 PBM fluorescence, median of replicate spots
27. B17  16500 PBM fluorescence, median of replicate spots
28. B33  16700 PBM fluorescence, median of replicate spots
29. B38  16800 PBM fluorescence, median of replicate spots
30. B35  17200 PBM fluorescence, median of replicate spots
31. B21  17700 PBM fluorescence, median of replicate spots
32. B18  18100 PBM fluorescence, median of replicate spots
33. B28  18400 PBM fluorescence, median of replicate spots
34. B20  19100 PBM fluorescence, median of replicate spots
35. B44  19700 PBM fluorescence, median of replicate spots
36. B36  19800 PBM fluorescence, median of replicate spots
37. B9  20600 PBM fluorescence, median of replicate spots
38. B34  22300 PBM fluorescence, median of replicate spots
39. B14  23200 PBM fluorescence, median of replicate spots
40. B4  23600 PBM fluorescence, median of replicate spots
41. B42  24600 PBM fluorescence, median of replicate spots
42. B39  25500 PBM fluorescence, median of replicate spots
43. B26  25700 PBM fluorescence, median of replicate spots
44. B3  28000 PBM fluorescence, median of replicate spots
